The text below walks through data of IntAct's records for PubMed 22289178.

The chains are these.
B1: Gamma-crystallin D (Homo sapiens), P07320 (parent)
chain: MGKITLYEDRGFQGRHYECSSDHPNLQPYLSRCNSARVDSGCWMLYEQPNYSGLQYFLRRGDYADHQQWMGLSDSVRSCRLIPHSGSHRIRLYEREDYRGQMIEFTEDCSCLQDRFRFNEIHSLNVLEGSWVLYELSNYRGRQYLLMPGDYRRYQDWGATNARVGSLRRVIDFS
partner: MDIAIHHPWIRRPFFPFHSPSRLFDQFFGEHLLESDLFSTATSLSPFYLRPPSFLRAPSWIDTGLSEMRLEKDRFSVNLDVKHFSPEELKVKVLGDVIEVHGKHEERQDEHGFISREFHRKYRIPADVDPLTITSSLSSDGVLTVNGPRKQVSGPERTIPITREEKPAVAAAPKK
B2: Alpha-crystallin B chain (Mus musculus), P23927 (parent)
chain: B1 partner
B3: Gamma-crystallin D (Homo sapiens), P07320 (parent)
chain: B1 chain
partner: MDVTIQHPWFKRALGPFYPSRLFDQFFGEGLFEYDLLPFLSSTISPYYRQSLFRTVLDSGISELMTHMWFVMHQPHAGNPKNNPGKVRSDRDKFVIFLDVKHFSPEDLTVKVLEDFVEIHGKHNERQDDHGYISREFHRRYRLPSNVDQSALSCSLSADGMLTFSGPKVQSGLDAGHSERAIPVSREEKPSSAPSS

In one test the parent is B1. Particulars: with cryab_mouse Cryab, P23927.
For the variant I4F, the “effect of a mutation on the interaction” value is “increasing interaction”.
Regarding V76D, the “effect of a mutation on the interaction” value is “increasing interaction”.

Another test covers variants of B2. Particulars: with crgd_human CRYGD, P07320.
On to MDIAIHHPWIRRPFFPFHSPSRLFDQFFGEHLLESDLFSTATSLSPFYLRPPSFLRAPDWIDTGLSEMRLEKDRFSVNLDVKHFSPEELKVKVLGDVIEVHGKHEERQDEHGFISREFHRKYRIPADVDPLTITSSLSSDGVLTVNGPRKQVSGPERTIPITREEKPAVAAAPKK, for which the “effect of a mutation on the interaction” value is reported as “increasing interaction”.
Still for that read-out and setting: then MDIAIHHPWIRRPFFPFHSPSRLFDQFFGEHLLESDLFSTATSLDPFYLRPPSFLRAPSWIDTGLSEMRLEKDRFSVNLDVKHFSPEELKVKVLGDVIEVHGKHEERQDEHGFISREFHRKYRIPADVDPLTITSSLSSDGVLTVNGPRKQVSGPERTIPITREEKPAVAAAPKK, with “increasing interaction”; and MDIAIHHPWIRRPFFPFHDPSRLFDQFFGEHLLESDLFSTATSLSPFYLRPPSFLRAPSWIDTGLSEMRLEKDRFSVNLDVKHFSPEELKVKVLGDVIEVHGKHEERQDEHGFISREFHRKYRIPADVDPLTITSSLSSDGVLTVNGPRKQVSGPERTIPITREEKPAVAAAPKK, with “increasing interaction”.

The variants in the next test derive from B3. Particulars: with cryaa_rat Cryaa.
Take V76D: the “effect of a mutation on the interaction” value is “increasing interaction”.
On to I4F, for which the “effect of a mutation on the interaction” value is “increasing interaction”.
